Measurements: patent publication US11708423B2, “Chimeric engulfment receptor molecules and methods of use” (CERO THERAPEUTICS, INC., priority 2017, dated 2023)

How the values were obtained:
human primary B cells = experiment: Proliferation of CER+ B cells co-cultured with paclitaxel treated Jurkat cells (CELLTRACE Violet dilution); assay type: cell-based; details: 5 days co-culture with paclitaxel (30 μM) treated Jurkat cells, no exogenous cytokines
Procedure: The proliferation capacity of CER19+ and CER21+ human primary B cells was evaluated by co-culture with paclitaxel (30 μM) treated Jurkat lymphoma cells. CER-transduced B cells were labeled with CELLTRACE Violet and then co-cultured with paclitaxel treated Jurkat cells a target cell to effector cell ratio of 5:1 at 37° C. in the absence of exogenous cytokines for 5 days. Proliferation of CER19+ or CER21+B cells was assessed by flow cytometry by measuring dilution of CELLTRACE Violet (FIG. 23). Both CER19+ and CER21+ B cells increased approximately 10-fold after 5 days of co-culture in the absence of exogenous cytokines.

[1] = tested on: CT26 murine colon carcinoma cells; experiment: Phagocytic activity of CER+ Ba/F3 cells against murine cell line CT26; assay type: cell-based; details: target:effector 5:1, 3 hours
Procedure: One day prior to the phagocytosis assay, CT26 murine colon carcinoma cells were cultured in complete RPMI 1640 growth media supplemented with 10% fetal bovine serum and 1% penicillin-streptomycin in a 6-well plate and treated with 1 mM staurosporine (STS) for 12 hours to induce apoptosis. Untreated CT26 cells were used as a negative control.
On the day of the phagocytosis assay, CT26 cells were collected, washed twice with 1×PBS to remove excess staurosporine and then stained with 1 ng/μ1 pHrodo Red in PBS at room temperature for 15 minutes. […]
Target CT26 cells were co-cultured with stained, CER05^+tEGFR^+ cells at a ratio of 5:1 (target cell:effector cell) for 3 hours at 37° C. […] The 96 well plate was then viewed using KEYENCE BZ-X710 fluorescence microscope, 20X objective. […]
A hybrid capture algorithm that detects fluorescence of pHrodo Red within CELLTRACE Violet staining area was applied to fluorescent images to quantify the area of engulfed target cells/area of CER^+ B cells or control tEGFR+ B cells (see, FIG. 12). […]
A hybrid capture algorithm that detects fluorescence of pHrodo Red within CELLTRACE Violet staining area was applied to fluorescent images to quantify the area of engulfed target cells/area of CER^+ B cells (see, FIG. 17). […]

[2] = tested on: dexamethasone treated thymocytes; experiment: Phagocytic activity of CER+ Ba/F3 cells against primary apoptotic thymocytes; assay type: cell-based, C3H mouse; details: for engulfment of dexamethasone-treated thymocytes: target:effector 10:1, 3 hours or overnight, fluorescent microscopy, vs EGFRt control
Procedure: One day prior to phagocytic assay, primary thymocytes were isolated from a C3H mouse (Charles River Laboratories International, Inc.). Thymocytes were cultured in complete RPMI 1640 growth media supplemented with 10% fetal bovine serum and 1% penicillin-streptomycin in a 6-well plate. To induce apoptosis and phosphatidylserine expression on the cell surface, thymocytes were treated with 1 μM dexamethansone for 24 hours. Untreated thymocytes were used as a negative control. Thymocytes were collected from the 6-well plates, washed once with sterile 1X PBS, and then stained with 1 ng/μ1 pH sensitive pHrodo™ Red dye (ThermoFisher Scientific, Catalog #P36600) in PBS at room temperature for 15 minutes. Labeling target cells with pHrodo Red dye permits visualization of cells that are engulfed and transported into lysosomes due to their increased light emission in the acidic lysosomal environment (Miksa et al., 2009, Immunol. Methods 342:71-7). The cells were then supplemented with growth media and washed one more time to remove any excess pHrodo Red. pHrodo Red stained thymocytes were plated on a flat bottom 96 well plate at 250,000 cells/well in RMPI 1640 complete media. […]
[…] The 96 well plate was then viewed using KEYENCE BZ-X710 fluorescence microscope, 20X objective. […]
A phagocytic index was calculated by multiplying [mean of total number of engulfed target cells/total number of counted CER modified cells (e.g., phagocytic frequency)] by [average area of target cell staining per CER+Ba/F3 cell x 100 (e.g., hybrid capture)] as compared to control EGFRt+Ba/F3 cells (see, FIG. 8). […]
Primary C3H mouse thymocytes were isolated, treated with dexamethasone, and stained with pHrodo Red as described in Example 1. […] Co-culture experiments were carried out at a 10:1 target cell to effector cell ratio, and Ba/F3 CER07^+tEGFR^+ cells were quantified for phagocytosis by fluorescence microscopy and FACs as described in Example 1. […]

B1: CER19: Tim4 binding and transmembrane domains, TLR5 signaling domain; SEQ ID NO:86 (protein)
chain: MSKGLLLLWLVTELWWLYLTPAASEDTIIGFLGQPVTLPCHYLSWSQSRNSMCWGKGSCPNSKCNAELLRTDGTRIISRKSTKYTLLGKVQFGEVSLTISNTNRGDSGVYCCRIEVPGWFNDVKKNVRLELRRATTTKKPTTTTRPTTTPYVTTTTPELLPTTVMTTSVLPTTTPPQTLATTAFSTAVTTCPSTTPGSFSQETTKGSAFTTESETLPASNHSQRSMMTISTDIAVLRPTGSNPGILPSTSQLTTQKTTLTTSESLQKTTKSHQINSRQTILIIACCVGFVLMVLLFLAFLTKFRGFCFICYKTAQRLVFKDHPQGTEPDMYKYDAYLCFSSKDFTWVQNALLKHLDTQYSDQNRFNLCFEERDFVPGENRIANIQDAIWNSRKIVCLVSRHFLRDGWCLEAFSYAQGRCLSDLNSALIMVVVGSLSQYQLMKHQSIRGFVQKQQYLRWPEDFQDVGWFLHKLSQQILKKEKEKKKDNNIPLQTVATIS
modifications: CER19 chimeric engulfment receptor
Human primary B cells
  increase of CER+ B cells: approximately 10 fold

B2: CER05: Tim4 binding domain, Tim4 transmembrane domain, TLR4 signaling domain; SEQ ID NO:81 (protein)
chain: MSKGLLLLWLVTELWWLYLTPAASEDTIIGFLGQPVTLPCHYLSWSQSRNSMCWGKGSCPNSKCNAELLRTDGTRIISRKSTKYTLLGKVQFGEVSLTISNTNRGDSGVYCCRIEVPGWFNDVKKNVRLELRRATTTKKPTTTTRPTTTPYVTTTTPELLPTTVMTTSVLPTTTPPQTLATTAFSTAVTTCPSTTPGSFSQETTKGSAFTTESETLPASNHSQRSMMTISTDIAVLRPTGSNPGILPSTSQLTTQKTTLTTSESLQKTTKSHQINSRQTILIIACCVGFVLMVLLFLAFLKFYFHLMLLAGCIKYGRGENIYDAFVIYSSQDEDWVRNELVKNLEEGVPPFQLCLHYRDFIPGVAIAANIIHEGFHKSRKVIVVVSQHFIQSRWCIFEYEIAQTWQFLSSRAGIIFIVLQKVEKTLLRQQVELYRLLSRNTYLEWEDSVLGRHIFWRRLRKALLDGKSWNPEGTVGTGCNWQEATSI
modifications: CER05 chimeric engulfment receptor
[1]
  phagocytosis of staurosporine treated CT26 cells: in vitro phagocytosis
[2]; 6 hours, 50 nM LysoTracker green
  co-localization of pHrodo red labeled thymocytes with LysoTracker green vesicles: pHrodo-labeled target cells have been internalized into lysosomes
[2]
  engulfment of dexamethasone-treated thymocytes: engulf dexamethasone-treated thymocytes

B3: CER07: Tim4 binding domain, TLR4 juxtamembrane spacer, TLR4 transmembrane domain, TLR4 signaling domain; SEQ ID NO:83 (protein)
chain: MSKGLLLLWLVTELWWLYLTPAASEDTIIGFLGQPVTLPCHYLSWSQSRNSMCWGKGSCPNSKCNAELLRTDGTRIISRKSTKYTLLGKVQFGEVSLTISNTNRGDSGVYCCRIEVPGWFNDVKKNVRLELRRATTTKKPTTTTRPTTTPYVTTTTPELLPTTVMTTSVLPTTTPPQTLATTAFSTAVTTCPSTTPGSFSQETTKGSAFTTESETLPASNHSQRSMMTISTDIAVLRPTGSNPGILPSTSQLTTQKTTLTTSESLQKTTKSHQINSRQTPVLSLNITCQMNKTIIGVSVLSVLVVSVVAVLVYKFYFHLMLLAGCIKYGRGENIYDAFVIYSSQDEDWVRNELVKNLEEGVPPFQLCLHYRDFIPGVAIAANIIHEGFHKSRKVIVVVSQHFIQSRWCIFEYEIAQTWQFLSSRAGIIFIVLQKVEKTLLRQQVELYRLLSRNTYLEWEDSVLGRHIFWRRLRKALLDGKSWNPEGTVGTGCNWQEATSI
modifications: CER07 chimeric engulfment receptor
[1]
  phagocytosis of staurosporine treated CT26 cells: engulfed staurosporine treated CT26 cells
[2]
  engulfment of dexamethasone-treated thymocytes: engulfed dexamethasone-treated thymocytes
